This assay deals with extracellular domain of PDGFRα-Fc conjugated (human) (UniProt P16234). Description: SPR + BLI.

By Kd is commonly meant the concentration at which binding is half-saturated.

Sequence of UniProt P16234 (P16234 24-528): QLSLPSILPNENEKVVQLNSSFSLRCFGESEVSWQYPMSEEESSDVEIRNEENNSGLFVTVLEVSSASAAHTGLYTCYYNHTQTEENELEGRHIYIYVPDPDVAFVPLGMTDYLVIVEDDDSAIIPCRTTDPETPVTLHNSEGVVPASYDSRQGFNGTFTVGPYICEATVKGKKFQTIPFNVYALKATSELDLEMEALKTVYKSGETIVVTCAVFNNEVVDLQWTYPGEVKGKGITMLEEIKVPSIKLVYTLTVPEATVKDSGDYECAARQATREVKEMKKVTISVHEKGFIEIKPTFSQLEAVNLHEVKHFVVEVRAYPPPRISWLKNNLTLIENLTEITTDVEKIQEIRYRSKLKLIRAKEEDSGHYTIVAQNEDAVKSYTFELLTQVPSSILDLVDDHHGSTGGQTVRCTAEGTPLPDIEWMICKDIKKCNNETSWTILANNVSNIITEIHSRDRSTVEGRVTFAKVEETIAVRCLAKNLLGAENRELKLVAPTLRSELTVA

For “soluble gHgLgO trimer (from UniProt P16832;P16750) (complex)”, the Kd stood at 2 nM.

The record behind these values is paper PMC4918640.
